Reference: publication PMC6760769, “A pull-down and slot blot-based screening system for inhibitor compounds of the podoplanin-CLEC-2 interaction” (PLoS ONE, 2019)

Experiments:
[1] = target: T1, C-type lectin-like receptor 2 (CLEC-2) (Homo sapiens, UniProt Q9P126); assay: pull-down of podoplanin (pod-HeLa lysate) with purified Fc-CLEC-2 pre-incubated with compound; slot blot and western blot; assay type: biochemical
T1 construct: gene CLEC1B; extracellular region of CLEC-2 (351–890, NM_016509), human IgG1 Fc-fusion (Fc-CLEC-2); with podoplanin
T1 sequence (Q9P126 50-229, one chain of several): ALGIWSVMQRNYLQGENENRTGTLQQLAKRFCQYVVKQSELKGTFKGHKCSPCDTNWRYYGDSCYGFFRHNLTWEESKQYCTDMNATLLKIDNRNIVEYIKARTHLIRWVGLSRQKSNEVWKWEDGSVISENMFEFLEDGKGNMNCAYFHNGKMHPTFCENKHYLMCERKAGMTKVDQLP

[2] = target: Fc moiety alone (human IgG1 Fc) (human); assay: SDS-PAGE under reducing and non-reducing conditions; purified protein, with or without 2-mercaptoethanol, Coomassie blue staining
[3] = target: CLEC-2 (Homo sapiens) (UniProt Q9P126); settings: cited from earlier work
Chain of CLEC-2 (Homo sapiens) (Q9P126 whole entry, the tested form may be a part): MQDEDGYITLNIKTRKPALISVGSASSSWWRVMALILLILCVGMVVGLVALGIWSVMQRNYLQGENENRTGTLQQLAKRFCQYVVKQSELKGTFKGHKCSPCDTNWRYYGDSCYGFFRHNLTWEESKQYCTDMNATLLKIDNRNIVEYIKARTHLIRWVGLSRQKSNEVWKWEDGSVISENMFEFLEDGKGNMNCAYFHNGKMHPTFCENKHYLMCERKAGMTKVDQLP

[4] = target: immunoglobulin Fc domain-CLEC-2 fusion protein (Fc-CLEC-2) (human) (UniProt Q9P126); assay: pull-down; standard combination (25 ug/mL Fc-CLEC-2, 1.5 mg/mL pod-HeLa lysate); hematoporphyrin or 2CP pre-incubated with Fc-CLEC-2 for 30 min, 2% DMSO control, in the dark; 10 uL slot-blotted; podoplanin intensity normalised to CLEC-2 intensity
Chain of immunoglobulin Fc domain-CLEC-2 fusion protein (Fc-CLEC-2) (human) (Q9P126 whole entry, the tested form may be a part): as above

[5] = target: immunoglobulin Fc domain-CLEC-2 fusion protein (Fc-CLEC-2) (human) (UniProt Q9P126); assay: pull-down; Fc-CLEC-2 or Fc (25 ug/mL) mixed in solution with pod-HeLa lysate (1.5 mg/mL; concentrations varied in some panels) on ice for 2 h, captured on protein A beads, washed 4x with TBST in a centrifugal filter unit, acid elution, SDS-PAGE and western blot with anti-podoplanin

CC1=C(CCC(=O)O)c2cc3[nH]c(cc4nc(cc5[nH]c(cc1n2)c(C)c5C(C)O)C(C)=C4C(C)O)c(C)c3CCC(=O)O (centres unmarked) [HPy, hematoporphyrin]
inhibition at 20 µM [1]: ~70%

Fc moiety alone (human IgG1 Fc) (domain or fragment)
stoichiometry N [2]: 2

podoplanin (from UniProt Q86YL7)
Kd [3]: 25 µM

B1: podoplanin (full-length, from podoplanin-overexpressing HeLa cells) (natural protein)
chain: ASTGQPEDDTETTGLEGGVAMPGAEDDVVTPGTSEDRYKSGLTTLVATSVNSVTGIRIEDLPTSESTVHAQEQSPSATASNVATSHSTEKVDGDTQTTVEKDGLSTVTLVGIIVGVLLAIGFIGAIIVVVMRKMSGRYSP
percent inhibition of the pull-down by 20 uM hematoporphyrin [4]: 70%
percent of podoplanin recovered in the pull-down [5]: < 20%
